Molecular target: histone H2A–H2B (from chicken blood histone core octamers) (chicken) (UniProt P02263)
Experiment: ITC; 25 °C, 20 mM HEPES pH 7.5, 200 mM NaCl, 1 mM DTT; histones in the cell at 20–30 μM, SSRP1 variants in the syringe at 10 times that concentration

Sequence of full-length DdSSRP1 (Q54G78 whole entry): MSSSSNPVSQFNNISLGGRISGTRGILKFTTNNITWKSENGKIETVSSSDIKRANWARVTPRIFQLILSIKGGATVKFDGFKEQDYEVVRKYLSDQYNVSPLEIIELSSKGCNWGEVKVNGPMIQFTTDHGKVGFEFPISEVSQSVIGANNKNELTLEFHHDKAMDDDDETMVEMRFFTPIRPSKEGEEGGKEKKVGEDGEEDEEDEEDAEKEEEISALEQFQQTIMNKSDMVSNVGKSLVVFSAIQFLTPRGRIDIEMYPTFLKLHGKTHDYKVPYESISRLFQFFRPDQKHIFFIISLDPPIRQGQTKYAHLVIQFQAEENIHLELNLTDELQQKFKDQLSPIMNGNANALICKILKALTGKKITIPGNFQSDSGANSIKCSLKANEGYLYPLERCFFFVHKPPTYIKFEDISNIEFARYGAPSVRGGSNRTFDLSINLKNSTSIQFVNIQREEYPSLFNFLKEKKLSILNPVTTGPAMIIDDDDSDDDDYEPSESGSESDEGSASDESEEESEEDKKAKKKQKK
Sequence of DdSSRP1 containing only the ID1 region (residues 479–527) (Q54G78 479-527): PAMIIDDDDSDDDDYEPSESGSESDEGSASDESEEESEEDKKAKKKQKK

Row | Kd | Substance
1 | 190 nM | DdSSRP1 containing only the ID1 region (residues 479–527) (from UniProt Q54G78 479-527) (domain or fragment)
2 | 310 nM | full-length DdSSRP1 (from UniProt Q54G78 1-527) (natural protein)

Reference: publication PMC6028955
